Experimental data reported in patent US9994830B2, “Methods for modulating cyclic nucleotide-mediated signaling in cardiac myocytes and compositions” (The United States of America as Represented by the …, priority 2014, dated 2018).
Substitutions are numbered along the chain they refer to. Numbers in names are those of the source.

Legend:
[1] = biological target: T1, rSERCA2 (Homo sapiens, UniProt P16615); experiment: Co-immunoprecipitation of Flag-tagged rhPDE3A variants and rSERCA2 after incubation with or without rPKAc; format: binding; details: for PKA-stimulated (phosphorylation-dependent) interaction with SERCA2: serine-to-alanine mutants of rhPDE3A1, 50 units rPKAc, co-IP
T1 construct: purchased Abnova
T1 sequence (P16615 whole entry): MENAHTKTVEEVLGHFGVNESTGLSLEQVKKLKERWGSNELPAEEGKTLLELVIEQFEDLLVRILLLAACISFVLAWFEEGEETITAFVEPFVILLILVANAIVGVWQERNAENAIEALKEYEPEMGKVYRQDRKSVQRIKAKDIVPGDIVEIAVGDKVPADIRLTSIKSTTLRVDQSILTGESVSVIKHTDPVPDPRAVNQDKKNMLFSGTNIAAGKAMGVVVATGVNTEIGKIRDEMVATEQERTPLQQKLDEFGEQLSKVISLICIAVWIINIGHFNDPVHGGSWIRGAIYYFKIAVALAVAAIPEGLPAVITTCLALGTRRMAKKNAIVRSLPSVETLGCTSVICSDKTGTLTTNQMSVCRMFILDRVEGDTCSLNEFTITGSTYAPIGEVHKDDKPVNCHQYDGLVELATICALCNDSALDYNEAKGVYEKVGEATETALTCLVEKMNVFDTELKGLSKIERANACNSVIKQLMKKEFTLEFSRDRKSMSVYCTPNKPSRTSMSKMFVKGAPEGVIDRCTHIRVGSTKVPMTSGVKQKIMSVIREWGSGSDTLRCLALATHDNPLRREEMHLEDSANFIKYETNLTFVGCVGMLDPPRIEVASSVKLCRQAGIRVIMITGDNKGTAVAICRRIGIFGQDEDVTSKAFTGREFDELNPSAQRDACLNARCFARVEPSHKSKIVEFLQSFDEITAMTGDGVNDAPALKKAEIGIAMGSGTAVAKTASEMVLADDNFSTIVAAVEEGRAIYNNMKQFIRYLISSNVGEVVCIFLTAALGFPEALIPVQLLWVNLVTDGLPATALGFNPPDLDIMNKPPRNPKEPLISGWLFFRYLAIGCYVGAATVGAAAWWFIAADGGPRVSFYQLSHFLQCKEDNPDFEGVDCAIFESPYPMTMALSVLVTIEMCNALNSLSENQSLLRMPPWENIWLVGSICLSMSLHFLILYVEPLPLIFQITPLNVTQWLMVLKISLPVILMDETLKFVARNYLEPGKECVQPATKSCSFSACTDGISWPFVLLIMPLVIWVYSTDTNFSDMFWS
Source text: FIG. 11 a-d. rPKAc phosphorylates rhPDE3A and increases its interactions rSERCA2. A. Schemes representing PDE3A1 [NHR1: trans-membrane domain (obligatory membrane insertion domain); NHR2: membrane association domain; CCR: conserved C-terminal catalytic region; P1-4: predicted PKA phosphorylation sites; rhPDE3A and truncated mutants (PDE3A2, PDE3A-A510, PDE3A-RD), and rSERCA2 (1042 amino acids, 3-77 cation transporter N-terminal; 93-341, E1-E2 ATPase; 345-724, haloacid dehydrogenase like hydrolase; 819-991, cation transporter ATPase C-terminus). B. Putative PKA phosphorylation sites of PDE3A designated with asterisks. C-D. Purified rSERCA2 (150 ng) (Abnova) and 50 units of Flag-tagged rhPDE3A1 truncated mutants [rhPDE3A2, rhPDE3A-A510, and similarly expressed rhPDE3A-RD (aa 146-484)](FIG. 11D) or mutants lacking the PKA putative phosphorylation site mutants of rhPDE3A1 [Ser292/293A (M1), S312A (M2), S428A (M3), S438A (M4), S292A/293A/312A/438A (M5)](FIG. 11C) were incubated with or without 50 units of rPKAc at 30° C. for 30 min and 5 mM MgCl2 in phosphorylation buffer. Proteins were immunoprecipitated with anti-Flag antibodies and immunoblotted with anti-SERCA2 (upper panel), or anti-Flag (middle panel). Lower panel: input control (SERCA2). Shown are representative blots from three independent experiments. (RD: regulatory domain; AA: amino acid).
Flag-tagged rhPDE3A1 and its phosphorylation site mutants [rhPDE3A1-S292A/293A (M1), rhPDE3A1-S312A (M2), rhPDE3A1-S428A (M3), rhPDE3A1-S438A (M4), rhPDE3A1-S292A/293A/312A/438A (M5) open reading frame [accession #NP_000912] was synthesized by Genscript, Inc (Piscataway, N.J.), subcloned into pAcSG2 baculoviral expression vector. Flag-tagged rhPDE3A variants and phosphorylation site mutants were expressed in SF21 cells [(10-20)×106 SF21 cells/75-cm2 flask] as described (19,20). SF21 cells were harvested, sedimented (10 min, 1000×g, 4° C.), washed twice with ice-cold PBS, resuspended, homogenized (in a Dounce homogenizer) in buffer B and sonicated […]. A comparison of the translated sequences of human AKAP18γ (AC NP_057461 and AK300587; 348 aa residues) and rat AKAP18δ (3) (AC QJP77; 352 aa residues) indicate that eight of the first twelve aa residues of human AKAP18γ and rat AKAP18δ are identical, and that the proteins are homologous (˜74% aa identity). SF21 cell extracts, which contained his-tagged-rAKAP18δ, were prepared as described above. Flag-tagged rhPDE3A1 (usually 50 arbitrary (u) units) was incubated (30 min, 30° C.) with rAKAP18δ (200 μl, containing 50 ng of recombinant protein), with or without different concentrations of rPKAc (final volume, 300 μl) in buffer B containing 2 mM DTT and 200 μM ATP. Reactions were stopped by dilution of reaction mixtures to 1.0 ml with buffer B containing 1 mg/ml SF21 cell lysates, and cleared as described above (cf ‘Immunoprecipitation and immunoblotting’ subsection). His-tagged rAKAP18δ was immunoprecipitated with anti-his Mab Mag-beads (Genscript). Anti-his Mab Mag beads-bound immunoprecipitates were washed, collected, and anti-his Mab Mag-beads-bound proteins were eluted by boiling in Laemmli's SDS buffer (100 μl) and samples (15 μl) of immunoprecipitated proteins as well as of reaction mixtures (‘input proteins’) were immunoblotted with indicated antibodies as described above.

[2] = test system: neonatal rat ventricular myocytes; experiment: Hypertrophy of neonatal rat ventricular myocytes (PDE3 inhibitor treatment or transfection with dominant-negative constructs, with or without norepinephrine); format: cell-based
Source text: FIG. 5. Anti-hypertrophic actions of PDE3A1-selective targeting in neonatal rat ventricular myocytes.
In contrast, expression of the PDE3A1 dominant negative has no pro-hypertrophic effect, and actually blocks the hypertrophic responses to norepinephrine.
In neonatal rat ventricular myocytes, conventional PDE3 inhibition promotes cellular hypertrophy, which may be associated with adverse consequences in heart failure. We questioned what effect PDE3A1-selective inhibition would have. […] The F1004A substitution is a change in the amino acid sequence of PDE3A1 at amino acid position 1004 from a phenylalanine to an alanine. We transfected neonatal rat ventricular myocytes with this dominant-negative construct to competitively block the protein-protein interactions that localize PDE3A1 to specific intracellular microdomains. […] To our knowledge, this is the first direct evidence that conventional PDE3 inhibition and isoform-selective targeting have different effects in cardiac myocytes, and that some of the adverse consequences of nonselective PDE3 inhibition may be averted by isoform-selective targeting involving protein-protein interactions.

B1: rPDE3A-RD: construct containing only the N-terminal portion of PDE3A1 (aa 146-484), regulatory domain (protein)
chain: MGLYLLRAGVRLPLAVALLAACCGGEALVQIGLGVGEDHLLSLPAAGVVLSCLAAATWLVLRLRLGVLMIALTSAVRTVSLISLERFKVAWRPYLAYLAGVLGILLARYVEQILPQSAEAAPREHLGSQLIAGTKEDIPVFKRRRRSSSVVSAEMSGCSSKSHRRTSLPCIPREQLMGHSEWDHKRGPRGSQSSGTSITVDIAVMGEAHGLITDLLADPSLPPNVCTSLRAVSNLLSTQLTFQAIHKPRVNPVTSLSENYTCSDSEESSEKDKLAIPKRLRRSLPPGLLRRVSSTWTTTTSATGLPTLEPAPVRRDRSTSIKLQEAPSSSPDSWNNPVM
[1]; truncated rhPDE3A constructs
  co-immunoprecipitation of rSERCA2 with construct: co-immunoprecipitated

B2: PDE3A1-F1004A: RFP-tagged PDE3A1 construct with F1004A substitution in the C-terminus yielding a catalytically inactive, dominant-negative protein (SEQ ID NO:2) (protein, listed as Homo sapiens)
chain: MAVPGDAARVRDKPVHSGVSQAPTAGRDCHHRADPASPRDSGCRGCWGDLVLQPLRSSRKLSSALCAGSLSFLLALLVRLVRGEVGCDLEQCKEAAAAEEEEAAPGAEGGVFPGPRGGAPGGGARLSPWLQPSALLFSLLCAFFWMGLYLLRAGVRLPLAVALLAACCGGEALVQIGLGVGEDHLLSLPAAGVVLSCLAAATWLVLRLRLGVLMIALTSAVRTVSLISLERFKVAWRPYLAYLAGVLGILLARYVEQILPQSAEAAPREHLGSQLIAGTKEDIPVFKRRRRSSSVVSAEMSGCSSKSHRRTSLPCIPREQLMGHSEWDHKRGPRGSQSSGTSITVDIAVMGEAHGLITDLLADPSLPPNVCTSLRAVSNLLSTQLTFQAIHKPRVNPVTSLSENYTCSDSEESSEKDKLAIPKRLRRSLPPGLLRRVSSTWTTTTSATGLPTLEPAPVRRDRSTSIKLQEAPSSSPDSWNNPVMMTLTKSRSFTSSYAISAANHVKAKKQSRPGALAKISPLSSPCSSPLQGTPASSLVSKISAVQFPESADTTAKQSLGSHRALTYTQSAPDLSPQILTPPVICSSCGRPYSQGNPADEPLERSGVATRTPSRTDDTAQVTSDYETNNNSDSSDIVQNEDETECLREPLRKASACSTYAPETMMFLDKPILAPEPLVMDNLDSIMEQLNTWNFPIFDLVENIGRKCGRILSQVSYRLFEDMGLFEAFKIPIREFMNYFHALEIGYRDIPYHNRIHATDVLHAVWYLTTQPIPGLSTVINDHGSTSDSDSDSGFTHGHMGYVFSKTYNVTDDKYGCLSGNIPALELMALYVAAAMHDYDHPGRTNAFLVATSAPQAVLYNDRSVLENHHAAAAWNLFMSRPEYNFLINLDHVEFKHFRFLVIEAILATDLKKHFDFVAKFNGKVNDDVGIDWTNENDRLLVCQMCIKLADINGPAKCKELHLQWTDGIVNEFYEQGDEEASLGLPISPFMDRSAPQLANLQESAISHIVGPLCNSYDSAGLMPGKWVEDSDESGDTDDPEEEEEEAPAPNEEETCENNESPKKKTFKRRKIYCQITQHLLQNHKMWKKVIEEEQRLAGIENQSLDQTPQSHSSEQIQAIKEEEEEKGKPRGEEIPTQKPDQ
modifications: RFP tag; (1)..(1141) conceptual translation of the longest ORF of the PDE3A gene with a mutation at amino acid position 1004 in which phenylalanine is changed to alanine; presence of alanine at amino acid 1004 inactivates phosphodiesterase activity
[2]; neonatal rat ventricular myocytes transfected with construct, norepinephrine
  hypertrophic response to norepinephrine: blocked the hypertrophic response to norepinephrine
[2]; neonatal rat ventricular myocytes, treatment or transfection alone
  cellular hypertrophy: did not induce cellular hypertrophy

B3: M4: Flag-tagged rhPDE3A1 phosphorylation site mutant S438A (protein, UniProt Q14432 1-1141, looked up, variant S438A)
cGMP-inhibited 3',5'-cyclic …: B2 chain with S438A, A1004F
modifications: Flag tag
notes: Flag-tagged rhPDE3A1 phosphorylation site mutant S438A
[1]
  PKA-stimulated (phosphorylation-dependent) interaction with SERCA2: had no effect

B4: M3: Flag-tagged rhPDE3A1 phosphorylation site mutant S428A (protein, UniProt Q14432 1-1141, looked up, variant S428A)
cGMP-inhibited 3',5'-cyclic …: B2 chain with S428A, A1004F
modifications: Flag tag
notes: Flag-tagged rhPDE3A1 phosphorylation site mutant S428A
[1]
  PKA-stimulated (phosphorylation-dependent) interaction with SERCA2: slightly decreased

B5: M1: Flag-tagged rhPDE3A1 phosphorylation site mutant S292A/293A (protein, UniProt Q14432 1-1141, looked up, variant S292A S293A)
cGMP-inhibited 3',5'-cyclic …: B2 chain with S292A, S293A, A1004F
modifications: Flag tag
notes: Flag-tagged rhPDE3A1 phosphorylation site mutant S292A/293A
[1]
  PKA-stimulated (phosphorylation-dependent) interaction with SERCA2: markedly diminished

B6: M2: Flag-tagged rhPDE3A1 phosphorylation site mutant S312A (protein, UniProt Q14432 1-1141, looked up, variant S312A)
cGMP-inhibited 3',5'-cyclic …: B2 chain with S312A, A1004F
modifications: Flag tag
notes: Flag-tagged rhPDE3A1 phosphorylation site mutant S312A
[1]
  PKA-stimulated (phosphorylation-dependent) interaction with SERCA2: slightly decreased

B7: M5: Flag-tagged rhPDE3A1 phosphorylation site mutant S292A/293A/312A/438A (protein, UniProt Q14432 1-1141, looked up, variant S292A S293A S312A S438A)
cGMP-inhibited 3',5'-cyclic …: B2 chain with S292A, S293A, S312A, S438A, A1004F
modifications: Flag tag
notes: Flag-tagged rhPDE3A1 phosphorylation site mutant S292A/293A/312A/438A
[1]
  PKA-stimulated (phosphorylation-dependent) interaction with SERCA2: markedly diminished
